From patent US20210371503A1

Target: prefusion stabilized SARS-CoV-2 S ectodomain (SARS-CoV-2) (UniProt P0DTC2)
Experiment: assay not stated; row Binding Affinity Spike Trimer, construct not given

REGN10933 (antibody)
Kd: 3 nM
